The values below are quoted from earlier work in publication PMC3463409.

The data set has as its target Cys30 (UniProt position 49, FFSFFCPHCYQ). Particulars: not stated (a thiol pKa implies the reduced form of the active-site cysteine).

For the substance “Thiol:disulfide interchange protein DsbA (Escherichia coli)”, the pKa is reported as 3.5.
